Measured values from publication PMC8358021.

Legend:
[1] = molecular target: AbApeO-AbApeC heterodimer (ketosynthase-chain length factor complex of the aryl polyene biosynthesis gene cluster of Acinetobacter baumannii) (Acinetobacter baumannii); assay: ITC; 2.0 mM holo ACP1 or holo ACP2 injected (19 injections of 3 µl) into 0.1 mM AbApeO-AbApeC or AbApeR; 25 °C; 40 mM potassium phosphate pH 7.0; 2 mM 2-mercaptoethanol
[2] = molecular target: AbApeR (FabB-like homodimeric ketosynthase of the A. baumannii APE gene cluster) (Acinetobacter baumannii); assay: as above

Substance: holo ACP1 (ApeE), acyl carrier protein 1 of the A. baumannii APE gene cluster (natural protein)
- Kd [1]: 0.074 µM
- stoichiometry N [1]: 1.63
- Kd [2]: 18 µM
- stoichiometry N [2]: 1.55
